Results: patent US20180086841A1 (Merck Sharp & Dohme, published 2018)
Where a chain is given by its changes, count along the chain named.

How the values were obtained:
[1] = target: T1, H36A; assay: flow cytometry on CHO-K1 transfectants, left sub-column, cell hatched (loss of binding)
T1 construct: also called hCD27 H36A
T1 receptor chain: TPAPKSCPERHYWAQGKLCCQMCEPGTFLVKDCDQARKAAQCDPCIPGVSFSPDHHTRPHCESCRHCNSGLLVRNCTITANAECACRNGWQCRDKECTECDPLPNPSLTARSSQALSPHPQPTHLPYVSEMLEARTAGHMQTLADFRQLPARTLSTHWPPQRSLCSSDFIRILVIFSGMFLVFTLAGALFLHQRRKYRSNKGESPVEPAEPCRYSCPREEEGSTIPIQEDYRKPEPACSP
Method: (§1) The ability of several anti-hCD27 antibodies to bind to a series of hCD27 alanine mutants was determined using CHO-K1 cells, transiently transfected pCI-neo empty vector, pCI-neo.hCD27 and several pCI-neo.CD27Ala mutant constructs.
(§2) Detached cells were transferred to 96 wells round-bottomed well plates at approximately 1.2×10⁵ cells/well. After spinning down the cells, discarding the supernatants and re-suspending the cells in the residual volume, the primary antibodies were added and incubated for 30 minutes at 4° C. Cells were washed three times with DPBS/BSA 1%, followed by centrifugation, discarding of the supernatants and re-suspension in the residual volume. […] After washing once, antibody binding was detected using the HTS plate reader (FACS Canto II) and FlowJo software for data analysis. Debris, dead cells and doublets were excluded from the analysis. Binding was expressed as the geometric mean of the FITC signal, relative to antibody binding to hCD27, which was set at 100%.

[2] = target: T2, D43A; assay: flow cytometry on CHO-K1 transfectants, left sub-column
T2 construct: also called hCD27 D43A
T2 receptor chain: T1 receptor chain with A36H, D43A
Method: (§3) The hCD27 variants that were tested are listed. Amino acids correspond to the UniProt P26842-1 sequence. Amino acids 1-20 constitute the signal peptide. Binding is expressed as the geometric mean of the FITC signal, relative to antibody binding to hCD27, which was set at 100%.
as §1, §2

[3] = target: T3, V49A; assay: as above
T3 construct: also called hCD27 V49A
T3 receptor chain: T1 receptor chain with A36H, V49A
Method: as §3, §1, §2

[4] = target: T4, Q91A; assay: as above
T4 construct: also called hCD27 Q91A
T4 receptor chain: T1 receptor chain with A36H, Q91A
Method: as §3, §1, §2

[5] = target: T5, F28A; assay: as above
T5 construct: also called hCD27 F28A
T5 receptor chain: T1 receptor chain with F28A, A36H
Method: as §3, §1, §2

[6] = target: T6, G89A; assay: as above
T6 construct: also called hCD27 G89A
T6 receptor chain: T1 receptor chain with A36H, G89A
Method: as §3, §1, §2

[7] = target: T7, H60A; assay: as above
T7 construct: also called hCD27 H60A
T7 receptor chain: T1 receptor chain with A36H, H60A
Method: as §3, §1, §2

[8] = target: T8, G16A; assay: as above
T8 construct: also called hCD27 G16A
T8 receptor chain: T1 receptor chain with G16A, A36H
Method: as §3, §1, §2

[9] = target: T9, Q41A; assay: as above
T9 construct: also called hCD27 Q41A
T9 receptor chain: T1 receptor chain with A36H, Q41A
Method: as §3, §1, §2

[10] = target: T10, W13A; assay: as above
T10 construct: also called hCD27 W13A
T10 receptor chain: T1 receptor chain with W13A, A36H
Method: as §3, §1, §2

B1: hCD27.131A (mouse parental 131A) (antibody, mouse IgG1, V domains shown)
VH: QIQLVQSGPELKKPGETVKISCKASGYTFTNYGMNWVKQAPGKGLKWMGWINTNTGEPTYAEEFKGRFAFSLETSATTAYLQINNLKNEDTATYFCAREGDAMDYWGQGTSVTVSS
VL: QIVLTQSPAIMSASPGEKVTMTCSASSSVSYMHWYQQKSGTSPKRWIYDTSKLASGVPARFSGSGSGTSYSLTISSMEAEDAATYYCQQWNSYPFTFGSGTKLEIK
notes: Mouse IgG1 antibody; also called mouse hCD27.131A
binding, WT hCD27 = 100 (GM FITC) [1]: 54.1%
binding, WT hCD27 = 100 (GM FITC) [2]: 194%
binding, WT hCD27 = 100 (GM FITC) [3]: 147%
binding, WT hCD27 = 100 (GM FITC) [4]: 148%
binding, WT hCD27 = 100 (GM FITC) [5]: 106%
binding, WT hCD27 = 100 (GM FITC) [6]: 113%
binding, WT hCD27 = 100 (GM FITC) [7]: 178%
binding, WT hCD27 = 100 (GM FITC) [8]: 94.8%
binding, WT hCD27 = 100 (GM FITC) [9]: 108%
binding, WT hCD27 = 100 (GM FITC) [10]: 86%
